Legend:
human Galectin-3 = molecular target: T1, human Galectin-3 (human, UniProt P17931 1-250); experiment: SPR, antibody captured on anti-mouse Fc surface, 8-pt 2-fold dilution series of LGALS3 from 500 nM
T1 construct: In the laminin assay it was biotin-labelled; also called LGALS3; Gal3
Method: SPR: Antibody binding to LGALS3 was confirmed by surface plasmon resonance (SPR) assay. The antibody was captured on an anti-mouse Fc surface and an 8-pt. 2-fold dilution series of LGALS3 was flown over the antibody starting at 500 nM.

mouse Galectin-3 = molecular target: T2, mouse Galectin-3 (mouse, UniProt P16110 2-264, limits assumed); experiment: ELISA screening (Table 1, antigen target)
T2 construct: also called mLGALS3; mouse LGALS3
T2 sequence (P16110 2-264 limits assumed): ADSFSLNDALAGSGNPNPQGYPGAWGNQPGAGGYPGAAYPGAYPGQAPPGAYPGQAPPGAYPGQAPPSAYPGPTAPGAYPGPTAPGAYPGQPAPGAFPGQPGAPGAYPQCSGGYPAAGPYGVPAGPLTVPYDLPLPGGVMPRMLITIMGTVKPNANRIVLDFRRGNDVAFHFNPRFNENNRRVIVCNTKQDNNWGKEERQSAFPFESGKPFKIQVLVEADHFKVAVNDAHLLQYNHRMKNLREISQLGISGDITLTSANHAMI

T1 sequence (P17931 whole entry): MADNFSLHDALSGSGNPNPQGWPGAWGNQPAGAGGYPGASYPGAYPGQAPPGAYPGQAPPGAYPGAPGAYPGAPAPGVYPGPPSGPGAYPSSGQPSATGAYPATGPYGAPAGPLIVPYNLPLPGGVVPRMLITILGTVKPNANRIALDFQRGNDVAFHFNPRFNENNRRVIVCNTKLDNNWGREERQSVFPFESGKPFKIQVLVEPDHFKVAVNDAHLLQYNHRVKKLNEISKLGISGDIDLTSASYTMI

B1: 112516.14D11.2D2 (antibody, V domains shown)
VH: QVQLKESGPGLVAPSQSLSITCTISGFSLSSYGVHWVRQPPGKGLEWLVVIWSDGSTTYNSTLKSRLSISKDNSKSQVFLKMNSLQTDDTAMYYCARHISNYGTMDYWGQGTSVTVS
VL: DIQMTQTTSSLSASLGDRVTISCRASQDIRNYLNWYQQKPDGSIKLLIYYTSRLHSGVPSRFSGSGSGTDYSLTIRNLEQEDIATYFCQHFNTLPPTFGGGTKLEIK
Human Galectin-3
  Kd: 14.6 nM
Mouse Galectin-3
  binding result: binds

— patent publication US20210032350A1 (Memorial Sloan Kettering, published 2021)
